Laboratory results from patent publication US20240417469A1.
pKd: −log10 of the molar value.

Experiments:
[1] = target: recombinant CD3D&E protein (human CD3-his tag) (human) (UniProt P04234); assay: SPR Biacore, Ab captured on Protein A
[2] = target: human CD3 on cells (human PBMC; Jurkat TCR/CD3 NFAT reporter cells) (human) (UniProt P07766); assay: FACS on human PBMC, PE anti-human IgG Fc secondary, geometric mean fluorescence
human CD3 on cells (human PBMC; Jurkat TCR/CD3 NFAT reporter cells) (human), sequence (P07766 23-207, chain 1 of 3): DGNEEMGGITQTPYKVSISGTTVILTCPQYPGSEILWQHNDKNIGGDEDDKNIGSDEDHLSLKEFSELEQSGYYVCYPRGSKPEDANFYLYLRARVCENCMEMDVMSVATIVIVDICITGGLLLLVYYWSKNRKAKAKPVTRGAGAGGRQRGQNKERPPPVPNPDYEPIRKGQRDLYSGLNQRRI
human CD3 on cells (human PBMC; Jurkat TCR/CD3 NFAT reporter cells) (human), sequence (P04234 22-171, chain 2 of 3, further chain): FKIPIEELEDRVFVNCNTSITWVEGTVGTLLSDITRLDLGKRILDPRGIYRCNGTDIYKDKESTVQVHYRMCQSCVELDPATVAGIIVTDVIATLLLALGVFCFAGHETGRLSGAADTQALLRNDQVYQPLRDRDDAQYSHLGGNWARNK
human CD3 on cells (human PBMC; Jurkat TCR/CD3 NFAT reporter cells) (human), sequence (P09693 23-182, chain 3 of 3, further chain): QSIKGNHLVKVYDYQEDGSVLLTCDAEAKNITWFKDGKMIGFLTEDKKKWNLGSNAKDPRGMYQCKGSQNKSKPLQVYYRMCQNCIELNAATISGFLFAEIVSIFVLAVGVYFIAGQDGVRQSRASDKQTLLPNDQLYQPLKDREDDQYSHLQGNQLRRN

recombinant CD3D&E protein (human CD3-his tag) (human), sequence (P04234 22-105 limits assumed, chain 1 of 2): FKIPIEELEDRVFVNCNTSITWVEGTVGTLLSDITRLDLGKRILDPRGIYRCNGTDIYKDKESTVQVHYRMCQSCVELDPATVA
recombinant CD3D&E protein (human CD3-his tag) (human), sequence (P07766 23-126 limits assumed, chain 2 of 2, further chain): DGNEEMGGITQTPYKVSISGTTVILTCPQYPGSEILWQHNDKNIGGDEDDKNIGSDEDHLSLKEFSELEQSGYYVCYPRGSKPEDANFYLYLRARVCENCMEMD

pKd [1]: 8.43
koff [1]: 0.00272 s⁻¹
kon [1]: 735000 M⁻¹ s⁻¹
EC50 (read off the curve) [2]: 0.04 nM
Substance: OKT3 (antibody)
